Experimental data: PMC3102678

Target: F pilus (conjugative pilus encoded by the F′ plasmid) on E. coli TOP10F′ (F+) cells (E. coli (endogenous on TOP10F′, F′ plasmid)) (UniProt P04737)
UniProt P04737, sequence (P04737 52-121): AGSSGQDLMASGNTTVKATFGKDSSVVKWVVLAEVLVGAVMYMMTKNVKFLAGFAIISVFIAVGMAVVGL

“g3p on replicating phage M13-km^R (from UniProt P69168 19-424) (natural protein)” gave an inhibition of F-mediated conjugation by replicating phage M13-km^R (no pre-infection), binding model applied naively without phage replication and infection: apparent Kd of 2.4 pM.
